Experimental data taken from PMC8913300, “Two distinct classes of cochaperones compete for the EEVD motif in heat shock protein 70 to tune its chaperone activities” (The Journal of Biological Chemistry, 2022).

Tested on: Hsp72–DnaJB4 complex
Assay: Luciferase refolding by Hsp72/DnaJB4 in the presence of TPR cochaperones
Assay type: biochemical
Conditions: 1 μM Hsp72, 100 nM denatured luciferase, 120 nM DnaJB4; CHIP titration or 10 μM TPR protein; 1 h at 37 °C
Experimental: Experiments were performed as described ([14]). Briefly, Renilla luciferase (Promega) was denatured in 8 M GdnHCl for 2 h at room temperature. Hsp72 (1 μM) and denatured luciferase (100 nM) were diluted into a working concentration in buffer containing an ATP regenerating system (23 mM Hepes, 120 mM KAc, 1.2 mM MgAc, 15 mM DTT, 61 mM creatine phosphate, 35 units/ml creatine kinase, and 5 ng/μl bovine serum albumin, pH 7.4). A titration series of DnaJB4 was added, and the reaction was initiated with the addition of 2.5 mM ATP. For competition assays with DnaJB4, complexes of Hsp72 (1 μM), denatured luciferase (100 nM), and DnaJB4 (120 nM) were incubated with either a titration of CHIP or 10 μM of indicated TPR protein. In all cases, the assay was allowed to incubate for 1 h at 37 °C in white, 96-well flat-bottom plates (Corning 3990). Luminescence was measured using the SteadyGlo luminescence reagent (Promega), and percent refolded luciferase was calculated using a standard curve of 100 to 0 nM native luciferase.

effect on client (luciferase) refolding by Hsp72–DnaJB4: strongly promoted luciferase refolding
B1: DnaJC7: TPR cochaperone that also contains a J-domain (protein, UniProt Q99615 2-494, looked up)
DnaJ homolog subfamily C …: AAAAECDVVMAATEPELLDDQEAKREAETFKEQGNAYYAKKDYNEAYNYYTKAIDMCPKNASYYGNRAATLMMLGRFREALGDAQQSVRLDDSFVRGHLREGKCHLSLGNAMAACRSFQRALELDHKNAQAQQEFKNANAVMEYEKIAETDFEKRDFRKVVFCMDRALEFAPACHRFKILKAECLAMLGRYPEAQSVASDILRMDSTNADALYVRGLCLYYEDCIEKAVQFFVQALRMAPDHEKACIACRNAKALKAKKEDGNKAFKEGNYKLAYELYTEALGIDPNNIKTNAKLYCNRGTVNSKLRKLDDAIEDCTNAVKLDDTYIKAYLRRAQCYMDTEQYEEAVRDYEKVYQTEKTKEHKQLLKNAQLELKKSKRKDYYKILGVDKNASEDEIKKAYRKRALMHHPDRHSGASAEVQKEEEKKFKEVGEAFTILSDPKKKTRYDSGQDLDEEGMNMGDFDPNNIFKAFFGGPGGFSFEASGPGNFFFQFG
